# T1: ADAM33 expressed in transiently transfected HEK293 cells (HEK293-ADAM33) (UniProt Q9BZ11 204-813)
# T1 construct: whole, on cells; Expression in HEK293 cells is mainly intracellular; also called HEK293-A33; A33
# T1 sequence (looked up): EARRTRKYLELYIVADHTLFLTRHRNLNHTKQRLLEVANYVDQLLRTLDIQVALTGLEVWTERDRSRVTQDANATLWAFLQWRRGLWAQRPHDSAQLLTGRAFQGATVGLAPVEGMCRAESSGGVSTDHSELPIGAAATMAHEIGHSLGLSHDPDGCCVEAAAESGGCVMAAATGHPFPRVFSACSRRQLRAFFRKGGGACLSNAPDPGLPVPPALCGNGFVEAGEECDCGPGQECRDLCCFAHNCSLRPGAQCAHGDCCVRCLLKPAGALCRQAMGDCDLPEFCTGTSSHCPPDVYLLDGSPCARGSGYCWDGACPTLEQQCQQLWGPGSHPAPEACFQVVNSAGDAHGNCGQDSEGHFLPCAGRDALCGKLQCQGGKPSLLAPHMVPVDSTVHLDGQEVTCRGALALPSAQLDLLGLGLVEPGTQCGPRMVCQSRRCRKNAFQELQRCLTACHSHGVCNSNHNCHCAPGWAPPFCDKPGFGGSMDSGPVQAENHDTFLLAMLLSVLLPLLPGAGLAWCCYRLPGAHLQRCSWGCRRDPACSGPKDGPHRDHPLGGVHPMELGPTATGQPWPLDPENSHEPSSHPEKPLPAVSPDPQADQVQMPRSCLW
# T2: R431A (Homo sapiens, UniProt P78325)
# T2 construct: expressed on HEK293 cells; also called human ADAM8 point mutant R431A
# T2 sequence (ADAM8, looked up): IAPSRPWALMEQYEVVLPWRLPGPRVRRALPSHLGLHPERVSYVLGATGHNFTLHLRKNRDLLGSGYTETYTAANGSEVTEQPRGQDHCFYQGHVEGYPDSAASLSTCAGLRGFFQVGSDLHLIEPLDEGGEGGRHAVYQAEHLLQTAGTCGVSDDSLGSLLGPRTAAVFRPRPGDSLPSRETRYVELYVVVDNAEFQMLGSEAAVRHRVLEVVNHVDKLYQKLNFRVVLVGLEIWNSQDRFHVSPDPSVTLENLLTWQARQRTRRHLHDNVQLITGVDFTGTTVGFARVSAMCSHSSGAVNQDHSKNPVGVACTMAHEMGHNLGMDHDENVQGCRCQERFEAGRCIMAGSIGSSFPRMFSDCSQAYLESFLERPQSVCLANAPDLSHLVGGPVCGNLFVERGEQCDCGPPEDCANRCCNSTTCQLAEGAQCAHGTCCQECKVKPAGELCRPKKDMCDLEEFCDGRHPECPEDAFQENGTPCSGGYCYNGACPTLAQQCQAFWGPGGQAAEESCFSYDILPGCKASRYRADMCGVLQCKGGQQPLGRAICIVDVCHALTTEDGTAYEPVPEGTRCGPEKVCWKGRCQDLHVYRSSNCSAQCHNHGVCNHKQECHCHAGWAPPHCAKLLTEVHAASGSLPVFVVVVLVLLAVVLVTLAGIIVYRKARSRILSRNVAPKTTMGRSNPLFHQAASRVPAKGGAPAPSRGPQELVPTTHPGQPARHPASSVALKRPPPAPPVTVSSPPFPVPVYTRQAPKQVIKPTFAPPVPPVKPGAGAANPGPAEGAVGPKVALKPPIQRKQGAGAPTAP
# How the values were obtained:
# [1] = target: T1, ADAM33 expressed in transiently …; assay: FACS, fixed and permeabilized HEK293-ADAM33 cells
# Experimental: ADP2 and ADP13 were also tested for cross-reactivity to the ADAM8 related protein ADAM33 using a variation of the above FACS protocol, which included steps for cell fixation and permeabilization. FACS was performed as an ELISA assay was precluded due to the lack of commercially available recombinant ADAM33. Cell fixation and permeabilization steps were needed as ADAM33 expression in HEK293 cells is primarily intracellular. HEK293 cells were transiently transfected over a 48-hr period with an ADAM33 construct (Clone ID HsCD00419548, Harvard Plasmid Information Database) or a control EV DNA (Plasmid #25890, Addgene) using Lipofectamine® 2000. Single cell suspensions (1×10⁶ cells/ml) were prepared in FACS buffer. Cell samples (1 ml) were centrifuged, resuspended in 50 μL cold 4% paraformaldehyde and incubated for 20 minutes at 4° C. in the dark with occasional shaking. Cells were then washed once with 1 ml FACS buffer, and then twice with 0.1% saponin FACS buffer. Samples were exposed to primary antibodies in 50 μL of 0.1% saponin FACS buffer for 30 minutes at 4° C. For ADP2, ADP13 and their respective IgG2b and IgG1 isotype matched controls, 2 μg of antibody were used. […] After three washes in 0.1% saponin FACS buffer, cells were resuspended in 500 μL FACS buffer and analyzed on a BD FACSCalibur™ machine.
# R431A = target: T2, R431A; assay: high-throughput flow cytometry, HEK293 cells with mutant ADAM8, high stringency; range in parentheses
# Experimental: A variety of experimental parameters were optimized for high-throughput flow cytometry including blocking buffer, and primary and secondary antibody concentrations, to identify the optimal conditions for screening. Through these studies ADP2 and ADP13 were determined to be high affinity binding antibodies.
# Thus, for these studies antigen-binding fragments (Fabs) of ADP2 and ADP13, which bind with lower affinity than the full antibody, were generated. In addition, higher binding stringency conditions were tested, such as increased pH, salinity, and temperature, and/or increased washing, to weaken binding sufficiently to allow identification of critical binding residues in flow cytometry. The final experimental flow cytometry conditions were: primary antibody incubation with ADP2 Fab (0.50 μg/ml), ADP13 Fab (5.00 μg/ml) and Control Ab (0.16 μg/ml) for 60 minutes in flow cytometry buffer containing 10% goat serum in PBS (Ca²⁺ and Mg²⁺ free). […] Samples were washed three times after primary antibody incubation and twice after secondary antibody incubation with PBS (Ca²⁺ and Mg′ free). Next, HEK293 cells expressing WT or mutated ADAM8 proteins or EV DNA were incubated with ADP2 or ADP13 Fabs or Control Ab at their optimal concentrations. Fab binding was detected using Alexa Fluor 488-conjugated secondary antibodies and mean cellular fluorescence determined using the Intellicyt iQue flow cytometry platform. […] This counter-screen strategy facilitates the exclusion of mutants that are locally misfolded or that have an expression defect. Binding of each test Fab to each mutant clone in the alanine scanning library was determined, in duplicate, by high-throughput flow cytometry.
Binder,binding result [1],Binding Reactivity (% WT) (R431A)
"ADP2 (antibody, V domains shown, also called mADP2; mouse ADP2) VH: EVKLVESGGGLVQPGGSLSLSCAASGFSFPDYYMSWVRQPPGKALEWLGFIRDSANGYTTEYIASVKGRFTFSRDNSQSILYLQMNALRAEDSATYYCARYSRYYGMDYWGQGTSVTVSS VL: SIVMTQTPKILLVSAGDRVTITCKASQTVNYDVAWYQQKPGQSPKPVIYFASNRYTGVPDRFTGSGFGTDFTFTISTVQAEDLAVYFCQQDYSAPWTFGGGTKLEIK",no binding (tested: 2 µg antibody per sample),
"ADP13 (antibody, IgG1, V domains shown, also called mADP13; mouse ADP13) VH: EVQLQQSGPEMVKPGTSVKISCKASGYTFTDYYINWVKQSHGKSLEWIGDISPNIGGATYNPKFKGKAILTVDKSARTAYMELRSLTSEDSAVYCCTRGGSSYPYFYAMDYWGQGTSVTVSS VL: DIVMSQSPSSLAVSVGEKVTMSCKSSQSLLYSSNQKKYLAWYQQKPGQSPKLLIYWASTRESGVPDRFTGSGSGTDFTLTISSVKAEDLAVYYCQQFYSYPYTFGGGTKLEINR",no binding (tested: 2 µg antibody per sample),
"ADP13 Fab (Fab, V domains shown) VH: EVQLQQSGPEMVKPGTSVKISCKASGYTFTDYYINWVKQSHGKSLEWIGDISPNIGGATYNPKFKGKAILTVDKSARTAYMELRSLTSEDSAVYCCTRGGSSYPYFYAMDYWGQGTSVTVSS VL: DIVMSQSPSSLAVSVGEKVTMSCKSSQSLLYSSNQKKYLAWYQQKPGQSPKLLIYWASTRESGVPDRFTGSGSGTDFTLTISSVKAEDLAVYYCQQFYSYPYTFGGGTKLEINR",,79.6

# From patent US20220227882A1 (TRUSTEES OF TUFTS COLLEGE, published 2022)
